# Measured values as given in patent publication US20130136743A1 (LABORATOIRE FRANCAIS DU FRACTIONNEMENT ET DES …, published 2013).
# Changes are numbered by the printed parent chain. In names and notes the source's numbering stands.
# T1: AMHRII receptor expressed on cells (cov434-AMHRII, Asc 1, META 2815) (human, UniProt Q16671 18-573)
# T1 sequence (looked up): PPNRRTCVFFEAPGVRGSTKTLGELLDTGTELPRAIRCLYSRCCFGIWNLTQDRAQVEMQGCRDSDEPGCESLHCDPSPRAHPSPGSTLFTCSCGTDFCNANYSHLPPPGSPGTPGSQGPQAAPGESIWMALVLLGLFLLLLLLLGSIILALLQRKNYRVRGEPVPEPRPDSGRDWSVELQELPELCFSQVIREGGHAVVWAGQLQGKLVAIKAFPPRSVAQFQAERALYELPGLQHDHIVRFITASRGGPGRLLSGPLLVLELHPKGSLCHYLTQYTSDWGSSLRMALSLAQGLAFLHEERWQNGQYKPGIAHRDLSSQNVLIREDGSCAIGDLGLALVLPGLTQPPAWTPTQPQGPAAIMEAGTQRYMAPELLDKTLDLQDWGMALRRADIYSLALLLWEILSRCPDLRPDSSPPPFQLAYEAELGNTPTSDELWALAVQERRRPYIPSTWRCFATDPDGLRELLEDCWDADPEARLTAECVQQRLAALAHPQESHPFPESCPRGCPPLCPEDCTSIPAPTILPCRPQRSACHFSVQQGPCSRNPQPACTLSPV
# T2: Epitope peptide GGGGNLTQDRAQVEMQGSR
# T2 peptide: GGGGNLTQDRAQVEMQGSR
# B1: 4C_35 (mutated huLFB112 phage-scFv clone) (scFv, part only; not given: scFv linker and phage partner, V domains shown, not shown: another chain or arm of the molecule; large carriers; small tags and cut ends)
# VH: QVQLVQSGAEVKKPGASVKVSCKASGYTFTSYHIHWVRQAPGQRPEWMGWIYPGDDSTKYSQKFQGRVTITRDTSASTAYMELSSLRSEDTAVYYCTRGDRFAYWGQGTLVTVSS
# VL: DIQMTQSPSTLSASVGDRVTITCRASSSVRYIAWYQQKPGKAPKLLIYSTSSLKSGVPSRFSGSGSGTEFTLTISSLQPDDFATYYCLQWSSYPWTFGGGTKVEIK
# B2: unmutated humanized 12G4 monoclonal antibody (antibody, human IgG1, kappa, V domains shown)
# VH: B1 VH with P45L
# VL: DIQMTQSPSTLSASVGDRVTITCRASSSVRYIAWYQQKPGKAPKLLIYSTSSLESGVPSRFSGSGSGTEFTLTISSLQPDDFATYYCLQWSSYPWTFGGGTKVEIKR
# notes: Variable regions without leader joined to the constant regions; also called huLFB112; 632 07 107 Anti AMHRII hum 1st
# B3: 3C_23 (mutated huLFB112 phage-scFv clone) (scFv, part only; not given: scFv linker and phage partner, V domains shown, not shown: another chain or arm of the molecule; large carriers; small tags and cut ends)
# VH: B1 VH with Q3R, P45L
# VL: B1 VL with I47T, S49P, K54E
# B4: mutated humanized 12G4 antibody 3C-23K produced in CHO (antibody, human IgG1, kappa, V domains shown)
# VH: B1 VH with Q3R, P45L
# VL: B2 VL with I47T, S49P, E54K
# notes: also called 3C_23K CHO; 3C-23K-CHO
# B5: 4F_196 (mutated huLFB112 phage-scFv clone) (scFv, part only; not given: scFv linker and phage partner, V domains shown, not shown: another chain or arm of the molecule; large carriers; small tags and cut ends)
# VH: B1 VH with Q3E, P45L, Q62R, E89D
# VL: B1 VL with K54E
# B6: 5B_81 (mutated huLFB112 phage-scFv clone) (scFv, part only; not given: scFv linker and phage partner, V domains shown, not shown: another chain or arm of the molecule; large carriers; small tags and cut ends)
# VH: B1 VH
# VL: B1 VL with K54E
# B7: 4D_91 (mutated huLFB112 phage-scFv clone) (scFv, V domains shown)
# VH: B1 VH with Q1E, V11A, P45L
# VL: B1 VL with K54E
# notes: scFv on M13 phage, tested as culture supernatant; Q1E: TAG codon suppressed, translated to E in E. coli XL1-blue; not shown: The 15-residue scFv peptide linker (positions 116-130 of the scFv numbering) and the M13 phage display partner
# B8: mutated humanized 12G4 antibody 3C-23 produced in CHO (antibody, human IgG1, kappa, V domains shown)
# VH: B1 VH with Q3R, P45L
# VL: B2 VL with I47T, S49P
# notes: also called 3C_23 CHO
# B9: 6A_80 (mutated huLFB112 phage-scFv clone) (scFv, V domains shown)
# VH: B1 VH with A24V, P45L, Q62E
# VL: B1 VL with K54E
# notes: scFv on M13 phage, tested as culture supernatant; Q62E: TAG codon suppressed, translated to E in E. coli XL1-blue; not shown: The 15-residue scFv linker (positions 116-130 of the scFv numbering) and the M13 phage display partner
# B10: 4F_169 (mutated huLFB112 phage-scFv clone) (scFv, V domains shown)
# VH: B1 VH with Q6E, P45L, T58A
# VL: B1 VL with K54E
# notes: scFv on M13 phage, tested as culture supernatant; Q6E: TAG codon suppressed, translated to E in E. coli XL1-blue; not shown: The 15-residue scFv peptide linker (positions 116-130 of the scFv numbering) and the M13 phage display partner
# B11: 5A_28 (mutated huLFB112 phage-scFv clone) (scFv, V domains shown)
# VH: B1 VH with P45L
# VL: B1 VL with Y48H, S49P, K54E
# notes: scFv on M13 phage, tested as culture supernatant; not shown: The 15-residue scFv linker (positions 116-130 of the scFv numbering) and the M13 phage display partner
# B12: 6B_87 (mutated huLFB112 phage-scFv clone) (scFv, V domains shown)
# VH: B1 VH with Q1E, A24V, P45L
# VL: B1 VL with K54E
# notes: as for B7
# B13: 4E_153 (mutated huLFB112 phage-scFv clone) (scFv, V domains shown)
# VH: B1 VH with P45L, D56N, I70N, F102S
# VL: B1 VL with K54E
# notes: scFv on M13 phage, tested as culture supernatant; not shown: The 15-residue scFv peptide linker (positions 116-130 of the scFv numbering) and the M13 phage display partner
# B14: 5B_18 (mutated huLFB112 phage-scFv clone) (scFv, V domains shown)
# VH: B1 VH with Q3E, A9T, P45L, A103T
# VL: B1 VL with K54E
# notes: scFv on M13 phage, tested as culture supernatant; Q3E: TAG codon suppressed, translated to E in E. coli XL1-blue; not shown: The 15-residue scFv peptide linker (positions 116-130 of the scFv numbering) and the M13 phage display partner
# B15: 6B_14 (mutated huLFB112 phage-scFv clone) (scFv, V domains shown)
# VH: B1 VH with S31G, Q39E, P45L
# VL: B1 VL with K54E
# notes: scFv on M13 phage, tested as culture supernatant; Q39E: TAG codon suppressed, translated to E in E. coli XL1-blue; not shown: The 15-residue scFv peptide linker (positions 116-130 of the scFv numbering) and the M13 phage display partner
# B16: 3D_74 (mutated huLFB112 phage-scFv clone) (scFv, V domains shown)
# VH: B1 VH with P45L
# VL: B1 VL with S28P, K54E
# notes: as for B13
# B17: mutated humanized 12G4 antibody 6B-78 produced in CHO (antibody, human IgG1, kappa, V domains shown)
# VH: B1 VH with P45L
# VL: B2 VL with E54K
# notes: also called 6B_78 CHO
# B18: 5A_66 (mutated huLFB112 phage-scFv clone) (scFv, V domains shown)
# VH: B1 VH with P45L, V68M
# VL: B1 VL with K54E, F82S
# notes: as for B13
# B19: 6B_76 (mutated huLFB112 phage-scFv clone) (scFv, V domains shown)
# VH: B1 VH with A40V, P45L
# VL: B1 VL with S49P, K54E
# notes: as for B11
# Columns and labels:
# [1] = target: T3, AMHR-II/Fc fusion protein (human, UniProt Q16671 18-149, limits assumed); test: phage-scFv ELISA on AMHRII-Fc; mean of at least four values, standard deviation in parentheses
# T3 construct: also called AMHR-II recombinant receptor expressed in the form of fusion protein with a region Fc; recombinant target; not shown: Fc region
# Description: The secondary screening consists of analysing the clones selected at the end of the primary screening individually. For this, the 113 unique mutated clones were transferred to a culture plate (96 well-1.2 ml).
# After production of the phage particles, the culture supernatants containing the phages-scFv were used for carrying out an ELISA binding assay. The binding of the mutated clones was evaluated at two dilutions (½ and ¼ of the supernatants containing the scFv-phages). The murine clones (mLFB112) and humanized clones (huLFB112) constructed under the scFv-phages format were used as references on each of the assay plates. Each of the mutated clones was tested at least twice.
# [2] = target: T1, AMHRII receptor expressed on cells …; test: cell-based or functional assay
# [3] = target: T1, AMHRII receptor expressed on cells …; test: cell-based or functional assay; remark: listed apart in the source
# [4] = target: T2, Epitope peptide GGGGNLTQDRAQVEMQGSR; test: method not stated; Example 2, heading names cov434-AMHR-II cells and the epitope peptide
# [5] = target: T1, AMHRII receptor expressed on cells …; test: cell-based or functional assay; remark: listed apart in the source
# [6] = target: T3, AMHR-II/Fc fusion protein; test: SPR, BIAcore X100; ratio against the chimeric 12G4
# Description: (§1) The affinity of the antibodies for their antigen, AMHR-II, is determined by the SPR (Surface Plasmon Resonance) technique on BIACore X100 (BIACore, GE Healthcare). The AMHR-II recombinant receptor, expressed in the form of fusion protein with a region Fc, is immobilized by covalent coupling between its amine functions and the carboxyl groups of dextran activated in succinimide esters, present on the surface of the type CM5 sensor chip. The COOH groups of the sensor chip are activated for 7 minutes with EDC/NHS mixture (0.1 M of N-hydroxysuccinimide and 0.1 M of 3-(N,N-dimethylamino)propyl-N-ethylcarbodiimide) at a flow of 10 μl/min then the AMHR-II/Fc fusion protein, diluted to 5 μg/ml in 10 mM sodium acetate buffer, pH 4.0, is injected at […] on track 2 of the sensor chip so as to reach 300 RU. The ester groups that have not reacted with the amines of the fusion protein are deactivated by injection of a solution of ethanolamine-HCl 1M, pH 8.5 for 7 min at a flow of 10 μl:min. Track 1, serving as negative control, was activated and deactivated like track 2.
# (§2) All the measurements are carried out at 25° C. The antibodies to be analysed are diluted in HBS-EP running buffer (BIACore, GE Healthcare) at concentrations from 6.25 to 3333 nM and injected on the sensor chip for 2 min at a flow of 30 μl/min. The dissociation step is monitored for 10 min and then the surface is regenerated by injection of 10 mM glycine buffer, pH 1.5 for 30 s at 10 μl/min.
# (§3) The sensorgrams obtained are analysed using the 1:2 kinetic model of the BIAevaluation 3.1 software.
# [7] = target: T3, AMHR-II/Fc fusion protein; test: SPR, BIAcore X100; AMHR-II/Fc immobilised on CM5 chip, antibody injected; 25 C
# Description: as §1, §2, §3
binder,measurement,setting,value
B1,Ratio AB invention/chimeric 12G4,[1],1.9
same,Ratio AB invention/humanized 12G4,[1],4.3
B2,"% of lysis of ASC1 cells (ADCC with NK cells, LDH release) at 0.001 ng/ml antibody",[2],0%
same,"% of lysis of ASC1 cells (ADCC with NK cells, LDH release) at 0.005 ng/ml antibody",[2],18%
same,"% of lysis of ASC1 cells (ADCC with NK cells, LDH release) at 0.05 ng/ml antibody",[2],2%
same,"% of lysis of ASC1 cells (ADCC with NK cells, LDH release) at 0.5 ng/ml antibody",[2],0%
same,"% of lysis of ASC1 cells (ADCC with NK cells, LDH release) at 5 ng/ml antibody",[2],7%
same,"% of lysis of ASC1 cells (ADCC with NK cells, LDH release) at 50 ng/ml antibody",[2],24%
same,"% of lysis of ASC1 cells (ADCC with NK cells, LDH release) at 500 ng/ml antibody",[2],50%
same,"% of lysis of ASC1 cells (ADCC with NK cells, LDH release) at 5000 ng/ml antibody",[2],50%
same,"EC50 (ng/ml), ADCC on ASC1 cells",[3],52.4 ng/mL
same,"Emax (% of lysis), ADCC on ASC1 cells",[3],52.4 % of lysis
same,Kd,[4],5260 nM
same,koff,[4],0.00962 s⁻¹
same,kon,[4],1830 M⁻¹ s⁻¹
B3,Ratio AB invention/chimeric 12G4,[1],1.2
same,Ratio AB invention/humanized 12G4,[1],2.6
B4,"EC50, ADCC on META 2815 cells",[5],0.467 µg/mL
same,KD chimeric/KD mutated,[6],8.5
same,Kd,[7],25 nM
same,koff,[7],0.001 s⁻¹
same,kon,[7],41000 M⁻¹ s⁻¹
B5,Ratio AB invention/chimeric 12G4,[1],1.5
same,Ratio AB invention/humanized 12G4,[1],3
B6,Ratio AB invention/chimeric 12G4,[1],1.6
same,Ratio AB invention/humanized 12G4,[1],3.5
B7,Ratio AB invention/chimeric 12G4,[1],0.8
same,Ratio AB invention/humanized 12G4,[1],1.7
B8,KD chimeric/KD mutated,[6],2.5
same,Kd,[7],86 nM
same,koff,[7],0.0043 s⁻¹
same,kon,[7],50000 M⁻¹ s⁻¹
B9,Ratio AB invention/chimeric 12G4,[1],1.3
same,Ratio AB invention/humanized 12G4,[1],1.5
B10,Ratio AB invention/chimeric 12G4,[1],1
same,Ratio AB invention/humanized 12G4,[1],2
B11,Ratio AB invention/chimeric 12G4,[1],0.8
same,Ratio AB invention/humanized 12G4,[1],1.6
B12,Ratio AB invention/chimeric 12G4,[1],1
same,Ratio AB invention/humanized 12G4,[1],2.1
B13,Ratio AB invention/chimeric 12G4,[1],1
same,Ratio AB invention/humanized 12G4,[1],2
B14,Ratio AB invention/chimeric 12G4,[1],0.9
same,Ratio AB invention/humanized 12G4,[1],1.8
B15,Ratio AB invention/chimeric 12G4,[1],1.1
same,Ratio AB invention/humanized 12G4,[1],2.6
B16,Ratio AB invention/chimeric 12G4,[1],0.8
same,Ratio AB invention/humanized 12G4,[1],2
B17,KD chimeric/KD mutated,[6],2.6
same,Kd,[7],81 nM
same,koff,[7],0.0012 s⁻¹
same,kon,[7],15000 M⁻¹ s⁻¹
B18,Ratio AB invention/chimeric 12G4,[1],1.1
same,Ratio AB invention/humanized 12G4,[1],2.2
B19,Ratio AB invention/chimeric 12G4,[1],0.8
same,Ratio AB invention/humanized 12G4,[1],1.7
